Holding throughout (test): phage ELISA
(In an ELISA, binding on a coated surface is turned into a signal by an enzyme label.)

Assay [1] has as its target T1, TNF-alpha (human, UniProt P01375 77-233).
T1 construct: also called TNFα; TNF-α

Assay [2] has as its target LIGHT (human, UniProt O43557 74-240, limits assumed).
Assay [3] concerns the target T2, TRAIL (human, UniProt P50591 114-281).
T2 construct: also called TNF-related apoptosis inducing ligand

The target of assay [4] is T3, B Lymphocyte Stimulator, soluble form (human) (human, UniProt Q9Y275 134-285, biotinylated with NHS-biotin where used as biotinylated B Lymphocyte Stimulator).
T3 construct: Coated on plastic, captured on streptavidin plates, amine-coupled to a CM5 chip or free in solution, depending on the assay; also called BLyS; immobilized B Lymphocyte Stimulator

For assay [5], the target named is T4, TNF-beta (human, UniProt P01374 35-205).
T4 construct: also called TNFβ; Tumour Necrosis Factor-beta
T4 sequence (looked up): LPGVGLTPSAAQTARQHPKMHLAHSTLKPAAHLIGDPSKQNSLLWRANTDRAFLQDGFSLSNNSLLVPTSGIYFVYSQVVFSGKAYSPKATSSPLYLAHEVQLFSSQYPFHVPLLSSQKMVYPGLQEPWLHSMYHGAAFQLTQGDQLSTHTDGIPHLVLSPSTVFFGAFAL

The values that follow come from US20110293610A1 (published 2011).

T2 sequence (P50591 114-281 limits assumed): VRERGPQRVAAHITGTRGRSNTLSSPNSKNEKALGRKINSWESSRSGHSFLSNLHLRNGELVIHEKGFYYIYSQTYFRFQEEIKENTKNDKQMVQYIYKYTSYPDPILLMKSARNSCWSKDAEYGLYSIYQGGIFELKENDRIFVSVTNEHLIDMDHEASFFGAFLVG
T1 sequence (P01375 77-233 limits assumed): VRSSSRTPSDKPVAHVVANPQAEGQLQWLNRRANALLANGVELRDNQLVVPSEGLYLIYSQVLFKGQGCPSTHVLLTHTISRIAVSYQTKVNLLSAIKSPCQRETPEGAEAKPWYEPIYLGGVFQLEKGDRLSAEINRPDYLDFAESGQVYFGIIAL
Chain of LIGHT (O43557 74-240 limits assumed): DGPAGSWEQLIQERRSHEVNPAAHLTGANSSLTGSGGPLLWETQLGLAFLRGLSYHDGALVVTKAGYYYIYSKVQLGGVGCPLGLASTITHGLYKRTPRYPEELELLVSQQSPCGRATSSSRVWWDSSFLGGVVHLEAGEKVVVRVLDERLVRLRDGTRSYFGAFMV

B1: I072B09 (scFv)
scFv: QVQLQQSGAEVKKPGASVKVSCRASGYTFTKYTMHWVRQAPGQGPEWMGWINGGSGDTKYSRKFQGRVTITKDTSASAAYMELSSLGSEDTALYYCARATYDPLTGYSFDGFDIWGQGTLVTVSSGGGGSGGGGSGGGGSSELTQDPAVSVALGQTVRITCQGDSLRSYYTNWFQQKPGQAPLLVVYAKNKRPSGIPDRFSGSSSGNTASLTITGAQAEDEADYYCNSRDSSGNHVVFGGGTKLTVLD
With B1, the binding result was “no binding” in assay [1]; “no binding” in assay [2]; “no binding” in assay [3]; “binds” in assay [4]; “no binding” in assay [5].

B2: I065D04 (scFv)
scFv: QVQLQESGPGLVKPSETLSLTCTVSGGSISSGYYWGWVRQPPGQGLEWIGSIYHSGSTYHNPSLKSRVTISMDTSKNQFSLNLNSVTAADTAVYYCARGKGYYDILTGYYRDNWFDPWGRGTLVTVSSGGGGSGGGGSGGGGSQSVLTQPASVSGSPGQSITISCTGTSSDVGGYNYVSWYQQHPGKAPKLMIYEGSKRPSGVSNRFSGSKSGNTASLTISGLQAEDEADYYCSSYTTRSTRVFGGGTKLTVLG
On to B2, for which the binding result is recorded as “no binding” in assay [1]; “no binding” in assay [2]; “no binding” in assay [3]; “binds” in assay [4]; “no binding” in assay [5].

B3: I064C04 (scFv)
scFv: QVQLVQSGAEVKKPGASVKVSCEASGYTFTSYGISWVRQAPGQGLEWMGWISTYNGNTRYPQKLQGRVTMTTDTSTSTAYMDLRSLRSDDTAVYYCARDGRLSYDILTGYYARDYYGMDDWGRGTMVTVSSGGGGSGGGGSGGGGSQSVLTQPASVSGSPGQSITISCTGTSSDVGGYNYVSWYQQHPGKAPKLMIYEGSKRPSGVSNRFSGSKSGNTASLTISGLQAEDEADYYCSSYTTRSTRVFGGGTKLTVLG
For B3, the binding result is reported as “no binding” in assay [1]; “no binding” in assay [2]; “no binding” in assay [3]; “binds” in assay [4]; “no binding” in assay [5].

B4: I073F04 (scFv)
scFv: QVQLQQSGAEVKKPGSSVKVSCKASGGTFRSYAFSWVRQAPGQGLEWMGYIVPVFGTATYAQNFQGRVTITADELTTTAFMELSSLTSEDTAVYYCARSLATRPLGMDVWGRGTTVTVSSGGGGSGGGGSGGGGSQSVLTQPASVSGSPGQSITISCTGTSSDVGGYNYVSWYQQHPGKAPKLMIYEGSKRPSGVSNRFSGSKSGNTASLTISGLQAEDEADYYCSSYTTRSTRVFGGGTKLTVLG
With B4, the binding result in assay [1] is given as “no binding”; in assay [2], “no binding”; in assay [3], “no binding”; in assay [4], “binds”; in assay [5] it was “no binding”.

B5: I068F03 (scFv)
scFv: EVQLVQSGADVKKPGASVKVSCKASHYPFTTYGVSWVRQAPGQGLEWMGWISNYNGHTRYAPKFQGRVTLTTDTLTNTAFMELKSLTSDDTAIYYCARAGNEYGHTERPADYWGKGTMVTVSSGGGGSGGGGSGGGGSAQAVLTQPSSVSGAPGQRVTISCTGSSSNIGAGYDVHWYQQLPGTTPKLLISRNNNRPPGVPDRFSGSKSGTSASLAITGLQAEDEADYYCQSYDTTLRGWVFGGGTKVTVLG
Take B5: the binding result in assay [1] is “no binding”; in assay [2] it was “no binding”; in assay [3] it was “no binding”; in assay [4], “binds”; in assay [5], “no binding”.

B6: I068C08 (scFv)
scFv: QVQLQQSGAEVKKPGSSVKVSCQASGGSFSREGISWVRQAPGHGLEWMGRIIPVLGVADYAQKFQGRVKISVDRLTSVAYMELTSLRFEDTAVYYCAREGMNDFINSHHYYTMDAWGQGTLVTVSSGGGGSGGGGSGGGGSAQAVLTQPSSVSGAPGQRVTISCTGSSSNIGAGYDVHWYQQLPGTAPKLLIYGNSNRPSGVPDRFSGSKSGTSASLAITGLQAEDEADYYCQSYDSSLSGSVFGGGTKLTVLG
With B6, the binding result in assay [1] was “no binding”; in assay [2], “no binding”; in assay [3], “no binding”; in assay [4], “binds”; in assay [5], “no binding”.

B7: I078D08 (scFv)
scFv: QVNLRESGGGLVQPGGSLRLSCAASGFTFSSYWMSWVRQAPGKGLEWVANIKQDGSEKYYVDSVKGRFTISRDNSKNTLYLQMNSLRAEDTAVYYCARDAQSYYDILTGYQSYAFDIWGQGTTVTVSSGGGGSGGGGSGGGGSSELTQDPAVSVALGQTVRITCQGDSLRSYYTNWFQQKPGQAPLLVVYAKNKRPSGIPDRFSGSSSGNTASLTITGAQAEDEADYYCHSRDSSGNHVLFGGGTKLTVLG
As to B7, the binding result in assay [1] is “no binding”; in assay [2], “no binding”; in assay [3], “no binding”; in assay [4], “binds”; in assay [5] it was “no binding”.

B8: I067B10 (scFv)
scFv: QMQLVQSGAEVKKPGASVKVSCKASGYTFTSYYMHWVRQAPGQGLEWMGWINAGNSNTKYSQKFQGRVTITSDTSASTAYMELSGLRSEDTAVYYCARDRGAPNYDILTGYYAPAQGVAFDIWGKGTLATVSSGGGGSGGGGSGGGGSQSVLTQPPSVSAAPGQKVTISCSGSTSNIGNNYVSWYQQHPGKAPKLMIYDVSKRPSGVPDRFSGSKSGNSASLDISGLQSEDEADYYCAAWDDSLSEFLFGTGTKLTVLG
Consider B8, for which the binding result in assay [1] was “no binding”; in assay [2], “no binding”; in assay [3], “no binding”; in assay [4] it was “binds”; in assay [5], “no binding”.

B9: I075G01 (scFv)
scFv: QVQLVQSGAEVKKPGASVKVSCKTSGYTFTGYNINWVRQAPGQGLEWMGWVSPSNGDTSYAQTFQGRVTMTRDTSISTAYMELSSLKSDDTAVYYCARDHFDTLTGYFRRLDSWGQGTLVTVSSGGGGSGGGGSGGGGSALSSELTQDPEVSVALGQTVTITCQGDSLITHYASWFQQKPGQAPLLVFYSKDKRPSGIPDRFSGSYSGNTASLTITGAQAEDEADYYCNSRDSRGKNHVAFGGGTKLTVLG
For the molecule B9, the binding result in assay [1] was “no binding”; in assay [2], “no binding”; in assay [3] it was “no binding”; in assay [4] it was “binds”; in assay [5], “no binding”.

B10: I064C07 (scFv)
scFv: QVQLVQSGAEVKKPGSSVKVSCKASGGTFSSYAISWVRQAPGQGLEWMGGIIPIFGTANYAQKFQGRVTITADDLTRTAYMEMSSLKFEDTAVYYCASSEGTIFGVDWGRGTLVTVSSGGGGSGGGGSGGGGSDIQMTQSPSFLSASVGDRVTITCRASQGINNYLAWYQQKPGRAPKLLMYAASSLQSGVPSRFSGSGSGTDFTLTISSLQPEDFATYYCLQDSDYPLTFGGGTKLEIKR
In the case of B10, the binding result is reported as “no binding” in assay [1]; “no binding” in assay [2]; “no binding” in assay [3]; “binds” in assay [4]; “no binding” in assay [5].
